Here are results for twelve molecules from patent US20250092134A1.

Sequences and labels used below:
B1: 21G11A8 (antibody, V domains shown)
VH: EVQLQESGPDLKKPGETVKISCKASGYTFTTYGMNWVKQAPGKGLKWMGYLNTYSGVSTYADDFKGRFAFSLETSANTAYLQINNLRNDDTATYFCARWGNYGAMDYWGQGTSVTVSS
VL: DIKMTQSPLSLPVSLGDQASISCRSSQSIVRSNGFTYLEWYLQKPGQSPELLIYKVSNRFSGVPDRFSGSGSGTDFTLKISRVEAEDLGVYYCFQSSHVPRTFGGGTKLEIK
B2: 21G11D5 (antibody, V domains shown)
VH: B1 VH
VL: B1 VL with K3V
B3: 28D2E6 (antibody, IgG1, V domains shown)
VH: EVQLQESGPGLVKPSQSLSLTCSVTGYFISSGYYWKWIRQFPGNKLEWMGYISYDGSNNYNPSLKNRISITRDTSKNQFFLKLNSVTAEDTATYYCARGGGYVPVWGTGTTVTVSS
VL: B1 VL with K3Q, F35N, E50K
B4: 28B2F5 (antibody, IgG2a, V domains shown)
VH: EVQLQESGPELVKPGASVKMSCKASGYTFTDDNMHWVKQSHGKSLEWIGYINPNNNHTNYNQKFKGKATLTVNKSSSTAYMELRSLTSEDSAVYFCARSTVVPFYAMDYWGQGTSVTVSS
VL: DIKMTQSPASLSMAIGEKVTIRCITITDIDDDMNWYQQKPGEPPKLLFSEGNTLRPGVPSRFSSSGYGSDFAFTIENMLSEDVADYYCLQSDNLPLTFGAGTKLELK
B5: 28B2A4 (antibody, IgG2a, V domains shown)
VH: B4 VH
VL: B4 VL with K3Q, A100G, L106I
B6: 28C9A5 (antibody, IgG2b, V domains shown)
VH: EVQLQESGAELVRPGTSVKMSCKASGYTFTHYWIDWTKQRPGHGLEWIGNIYPGGGYTNYNENFKGKATLTADKSSSTVFMQFSSLTSDDSAIYYCTRKGYYYGSDWYFDVWGTGTTVTVSS
VL: QIVLSQSPAIMSASPGEKVTMTCSASSSVSYMHWYQQKSGTSPKRWIYDTSKLASGVPARFSGSGSGTSYSLTISSMEAEDAATYYCQQWSSNPYTFGGGTKLEIK
B7: 20A9A9 (antibody, V domains shown)
VH: EVQLQESGPGLVQPSQSLSITCTVSGFSLTSYGVHWVRQSPGKGLEWLGIIWSAGGTDYNAAFISRLSISKDNSKSQIFFKLNSLHADDTAIYFCARGSFYDYGRLDYWGQGTTLTVSS
VL: DIVMTQSHRFMSTSVGDRVSITCKASQDVSTAVAWYQQKPGQSPKLLIYSSSYRYTGVPDRFTGSGSGTDFTFTISSVQAEDLAVYYCQQHYGTPYTFGGGTKLEIQ
B8: 28B2A2 (antibody, IgG2a, V domains shown)
VH: B4 VH
VL: B4 VL with K3V
B9: 28D2E8 (antibody, IgG1, V domains shown)
VH: B3 VH
VL: B1 VL with F35N, E50K
B10: 23A9B10 (antibody, V domains shown)
VH: B3 VH with F28S, S30T, K36N, P42L, S53T, N66D, K82N, A88T, E89D
VL: IQMTQSPAFLSVSPGERVSFSCRASQNIGTSIHWYQQRTNGSPRLLIKYASESISGIPSRFSGSGSGTDFTLSINSVESEDFADYYCHQSHNWPTTFGAGTKLELK
B11: 23A9F7 (antibody, V domains shown)
VH: B3 VH with F28S, S30T, K36N, P42L, S53T, N66D, K82N, A88T, E89D
VL: DVQMTQSPAFLSVSPGERVSFSCRASQNIGTSIHWYQQRTNGSPRLLIKYASESISGIPSRFSGSGSGTDFTLSINSVESEDFADYYCHQSHNWPTTFGAGTKLELK
B12: 23A9C10 (antibody, V domains shown)
VH: B3 VH with F28S, S30T, K36N, P42L, S53T, N66D, K82N, A88T, E89D
VL: B11 VL with V2I

Numbering of substitutions follows the chain as printed.

Sequence of TCR Vβ17 on T cells of PBMCs (A0A075B6N1 22-114): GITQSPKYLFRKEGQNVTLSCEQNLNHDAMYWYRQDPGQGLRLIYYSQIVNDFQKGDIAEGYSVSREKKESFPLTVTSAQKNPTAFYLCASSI

The first experiment concerns the target TCR Vβ17 on T cells of PBMCs. The experiment is described as follows: cell-based or functional assay.
Consider B1, for which the Proliferation (EC50, ug/ml) was above 5 µg/mL.

B2 came in with a Proliferation (EC50, ug/ml) of 2 µg/mL.

For the molecule B3, the Proliferation (EC50, ug/ml) came to 0.3 µg/mL.

With B4, the Proliferation (EC50, ug/ml) came out at 0.7 µg/mL.

Regarding B5, the Proliferation (EC50, ug/ml) was above 5 µg/mL.

B6 gave a Proliferation (EC50, ug/ml) of 0.9 µg/mL.

B7 returned a Proliferation (EC50, ug/ml) above 5 µg/mL.

In another experiment the target is Vβ17 (on cells expressing Vβ17). Briefly: cell-based or functional assay.
Sequence of Vβ17 (on cells expressing Vβ17) (A0A075B6N1 22-114): as above
In turn, B8 registered a Cell Internalization (EC50) below 0.07 nM.

Regarding B4, the Cell Internalization (EC50) was below 0.07 nM.

Take B5: the Cell Internalization (EC50) is below 0.07 nM.

The next experiment deals with HuTCR Vb17 × Va10.2 (SKW3_1) (human). Briefly: flow cytometry on SKW3-1 cells. On the technique in general: A flow cytometer gives signals particle by particle.
Sequence of HuTCR Vb17 × Va10.2 (SKW3_1) (human) (A0A075B6N1 22-114, chain 1 of 2): as the sequence (A0A075B6N1 22-114) above
Sequence of HuTCR Vb17 × Va10.2 (SKW3_1) (human) (A0A087WT01 20-109, chain 2 of 2, further chain): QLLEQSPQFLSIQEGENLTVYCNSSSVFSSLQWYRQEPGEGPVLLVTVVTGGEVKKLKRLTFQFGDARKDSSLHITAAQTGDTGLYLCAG
The molecule B1 gave an MFI of 48700 MFI.

Regarding B9, the MFI was 43600 MFI.

Consider B2, for which the MFI came out at 47500 MFI.

The molecule B3 showed an MFI of 38000 MFI.

In the case of B8, the MFI is 77400 MFI.

Molecule B4 returned an MFI of 81800 MFI.

For B5, the MFI came out at 45700 MFI.

Molecule B10 returned an MFI of 10100 MFI.

In the case of B11, the MFI was found to be 8600 MFI.

For the molecule B12, the MFI is 7660 MFI.

Regarding B6, the MFI was 55200 MFI.

On to B7, for which the MFI was determined as 39500 MFI.

The target in another experiment is HuTCR Vb17 × Va12 (SKW3-2) (human). Briefly: flow cytometry on SKW3-2 cells.
Sequence of HuTCR Vb17 × Va12 (SKW3-2) (human) (A0A075B6N1 22-114): as the sequence (A0A075B6N1 22-114) above
B1 showed an MFI of 38900 MFI.

Take B9: the MFI was found to be 50000 MFI.

On to B2, for which the MFI worked out at 56300 MFI.

B3 showed an MFI of 53800 MFI.

B8 gave an MFI of 36500 MFI.

B4: the MFI was found to be 36600 MFI.

B5: the MFI was determined as 53800 MFI.

B10 gave an MFI of 6600 MFI.

In the case of B11, the MFI came out at 3400 MFI.

For the molecule B12, the MFI is 3210 MFI.

In turn, B6 yielded an MFI of 56900 MFI.

As to B7, the MFI came to 43100 MFI.

Another experiment deals with HuTCR Vb7/9 × Va10.2 (SKW3-3) (human). Briefly: flow cytometry on SKW3-3 cells (no Vβ17).
B1: the MFI amounted to 532 MFI.

Consider B9, for which the MFI was 452 MFI.

B2 had an MFI of 427 MFI.

With B3, the MFI was 441 MFI.

In the case of B8, the MFI is 434 MFI.

B4 had an MFI of 438 MFI.

Molecule B5 gave an MFI of 472 MFI.

The molecule B10 returned an MFI of 507 MFI.

B11 yielded an MFI of 466 MFI.

As to B12, the MFI came to 458 MFI.

As for B6, the MFI came out at 438 MFI.

Regarding B7, the MFI worked out at 448 MFI.

Another experiment concerns the target TCR Vβ17 on T cells of PBMCs. Briefly: flow cytometry on PBMCs, percent of cells stained.
As to B1, the PBMC binding (%) was 2.96%.

Consider B9, for which the PBMC binding (%) turned out to be 3.3%.

For the molecule B2, the PBMC binding (%) came out at 3.06%.

B3 had a PBMC binding (%) of 3.27%.

B8 had a PBMC binding (%) of 3.13%.

The molecule B4 returned a PBMC binding (%) of 3.2%.

B5 displayed a PBMC binding (%) of 2.97%.

Molecule B10 yielded a PBMC binding (%) of 2.74%.

For the molecule B11, the PBMC binding (%) was 2.32%.

As for B12, the PBMC binding (%) amounted to 3.2%.

In turn, B6 came in with a PBMC binding (%) of 3.27%.

In turn, B7 registered a PBMC binding (%) of 2.7%.
